The record followed here is US20250026846A1 (JCR PHARMACEUTICALS, published 2025).

By Kd is commonly meant a measure of binding affinity in units of concentration. As a reminder, the koff is a measure of how fast the partners let go of each other. Broadly, the kon is a measure of how fast the partners come together.

Positions count from the first letter of the chain named. Read-outs that look alike come from different tables or passages of the source.

Common to all, as to experiment: BLI (Octet RED96), His-tagged TfR ECD on Ni-NTA sensor
Test [1] deals with T1, recombinant human TfR (r human TfR: Sino Biological Inc.), hTfR extracellular region with a histidine tag at … (human, UniProt P02786 89-760).
T1 construct: Bought from Sino Biological; also called r human TfR-ECD (Histag); recombinant hTfR; not shown: histidine tag at the N-terminus
How it is done: (§1) Each of the sample solutions prepared above by 2-fold dilution steps was added, 200 μL/well, to a 96-well plate, black (Greiner Bio-One Inc.). Each of the r human TfR-ECD (Histag) solution and the r monkey TfR-ECD (Histag) solutions prepared above was added, 200 μL/well, to predetermined wells. To respective wells for baseline, dissociation and washing were added HBS-P+, 200 μL/well. To wells for regeneration were added 10 mM Glycine-HCl (pH 1.7), 200 μL/well. To wells for activation was added 0.5 mM NiCl₂ solution, 200 μL/well. The plate and biosensor (Biosensor/Ni-NTA: ForteBio Inc., a division of Pall Corporation) were set in the prescribed positions of Octet RED96.
(§2) The measurement was performed at 25 to 30° C.
(§3) The affinity of the humanized anti-hTfR antibodies obtained in Example 13 to human and monkey TfRs was measured by the method described in Example 7.

Test [2] concerns the target T2, recombinant monkey TfR (r monkey TfR: Sino Biological Inc.), crab-eating monkey TfR extracellular region with … (crab-eating monkey (Macaca fascicularis)).
T2 construct: Bought from Sino Biological; also called r monkey TfR-ECD (Histag); not shown: histidine tag at the N-terminus
T2 chain: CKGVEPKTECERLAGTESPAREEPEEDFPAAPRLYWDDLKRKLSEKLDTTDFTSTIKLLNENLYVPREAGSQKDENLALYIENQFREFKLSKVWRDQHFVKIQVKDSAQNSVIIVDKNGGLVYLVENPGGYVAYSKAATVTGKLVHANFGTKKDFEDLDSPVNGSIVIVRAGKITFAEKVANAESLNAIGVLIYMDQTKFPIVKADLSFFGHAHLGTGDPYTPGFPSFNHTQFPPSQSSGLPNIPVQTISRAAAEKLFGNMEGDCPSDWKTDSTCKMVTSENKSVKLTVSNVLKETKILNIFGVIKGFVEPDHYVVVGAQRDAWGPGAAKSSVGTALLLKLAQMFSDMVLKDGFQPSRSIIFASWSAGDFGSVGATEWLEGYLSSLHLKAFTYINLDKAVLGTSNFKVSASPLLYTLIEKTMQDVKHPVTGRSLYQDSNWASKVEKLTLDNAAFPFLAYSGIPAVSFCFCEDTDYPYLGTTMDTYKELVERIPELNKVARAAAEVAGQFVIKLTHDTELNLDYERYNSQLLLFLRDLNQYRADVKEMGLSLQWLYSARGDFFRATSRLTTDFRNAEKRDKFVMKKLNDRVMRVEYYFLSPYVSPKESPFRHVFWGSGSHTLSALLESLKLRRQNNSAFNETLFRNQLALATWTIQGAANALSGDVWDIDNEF
Here is the method:
as §1, §2, §3

In test [3] the target is T1, recombinant human TfR (r human TfR: …). This is another data set of the same source.
Test [4] addresses T2, recombinant monkey TfR (r monkey TfR: …).

B1: humanized anti-hTfR antibody No. 3-2 (antibody, human IgG1, kappa)
light: DIVMTQSPLSLPVTPGEPASISCRSSQSLVHSNGNTYLHWYLQKPGQSPQLLIYKVSNRFSGVPDRFSGSGSGTDFTLKISRVEAEDVGVYYCSQSTHVPWTFGQGTKVEIKRTVAAPSVFIFPPSDEQLKSGTASVVCLLNNFYPREAKVQWKVDNALQSGNSQESVTEQDSKDSTYSLSSTLTLSKADYEKHKVYACEVTHQGLSSPVTKSFNRGEC
heavy: not shown
notes: IgG1
Consider B1, for which, in test [1], the Kd worked out at 0.0239 nM, the koff amounted to 1.45e-05 s⁻¹ and the kon amounted to 606000 M⁻¹ s⁻¹. Also, in test [2], the equilibrium dissociation constant (Kd) is 1.77 nM, the koff was 0.000876 s⁻¹ and the association rate constant (kon) stood at 495000 M⁻¹ s⁻¹.

B2: Fab GS3-LAMAN (other)
light: B1 light with S7T, P12S, E17Q
heavy: EVQLVQSGAEVKKPGESLKISCKGSGYSFMNYWLGWVRQMPGKGLEWMGDIYPGGDYPTYSEKFKVQVTISADKSISTAYLQLSSLKASDTAMYYCARSGNYDEVAYWGQGTLVTVSSASTKGPSVFPLAPSSKSTSGGTAALGCLVKDYFPEPVTVSWNSGALTSGVHTFPAVLQSSGLYSLSSVVTVPSSSLGTQTYICNVNHKPSNTKVDKKVEPKSCDKTHTGGGGSGGGGSGGGGSGGYETCPTVQPNMLNVHLLPHTHDDVGWLKTVDQYFYGIKNDIQHAGVQYILDSVISALLADPTRRFIYVEIAFFSRWWHQQTNATQEVVRDLVRQGRLEFANGGWVMNDEAATHYGAIVDQMTLGLRFLEDTFGNDGRPRVAWHIDPFGHSREQASLFAQMGFDGFFFGRLDYQDKWVRMQKLEMEQVWRASTSLKPPTADLFTGVLPNGYNPPRNLCWDVLCVDQPLVEDPRSPEYNAKELVDYFLNVATAQGRYYRTNHTVMTMGSDFQYENANMWFKNLDKLIRLVNAQQAKGSSVHVLYSTPACYLWELNKANLTWSVKHDDFFPYADGPHQFWTGYFSSRPALKRYERLSYNFLQVCNQLEALVGLAANVGPYGSGDSAPLNEAMAVLQHHDAVSGTSRQHVANDYARQLAAGWGPCEVLLSNALARLRGFKDHFTFCQQLNISICPLSQTAARFQVIVYNPLGRKVNWMVRLPVSEGVFVVKDPNGRTVPSDVVIFPSSDSQAHPPELLFSASLPALGFSTYSVAQVPRWKPQARAPQPIPRRSWSPALTIENEHIRATFDPDTGLLMEIMNMNQQLLLPVRQTFFWYNASIGDNESDQASGAYIFRPNQQKPLPVSRWAQIHLVKTPLVQEVHQNFSAWCSQVVRLYPGQRHLELEWSVGPIPVGDTWGKEVISRFDTPLETKGRFYTDSNGREILERRRDYRPTWKLNQTEPVAGNYYPVNTRIYITDGNMQLTVLTDRSQGGSSLRDGSLELMVHRRLLKDDGRGVSEPLMENGSGAWVRGRHLVLLDTAQAAAAGHRLLAEQEVLAPQVVLAPGGGAAYNLGAPPRTQFSGLRRDLPPSVHLLTLASWGPEMVLLRLEHQFAVGEDSGRNLSAPVTLNLRDLFSTFTITRLQETTLVANQLREAASRLKWTTNTGPTPHQTPYQLDPANITLEPMEIRTFLASVQWKEVDG
notes: also called Fab HC-GS3-LAMAN
In the case of B2, in test [3], the dissociation constant (Kd) was below 0.001 nM, the koff was below 1e-07 s⁻¹ and the kon came to 729000 M⁻¹ s⁻¹. In test [4], the Kd is below 0.001 nM, the koff was below 1e-07 s⁻¹ and the association rate constant (kon) was determined as 357000 M⁻¹ s⁻¹.

B3: humanized anti-hTfR antibody No. 3-4 (antibody, human IgG1, kappa, V domains shown)
VH: EVQLVQSGAEVKKPGESLKISCKGSGYSFTNYWLGWVRQMPGKGLEWMGDIYPGGDYPTYSEKFKVQVTISADKSISTAYLQWSSLKASDTAMYYCARSGNYDEVAYWGQGTLVTVSS
VL: DIVMTQTPLSLSVTPGQPASISCRSSQSLVHSNGNTYLHWYLQKPGQSPQLLIYKVSNRFSGVPDRFSGSGSGTDFTLKISRVEAEDVGVFFCSQSTHVPWTFGQGTKVEIKR
notes: IgG1
For B3, in test [1], the Kd was below 0.001 nM, the koff was below 1e-07 s⁻¹ and the kon came to 1.01e+06 M⁻¹ s⁻¹. Moreover, in test [2], the Kd came out at 0.26 nM, the koff came to 0.000135 s⁻¹ and the kon came to 519000 M⁻¹ s⁻¹.

B4: humanized anti-hTfR antibody No. 3-3 (antibody, human IgG1, kappa)
light: B1 light with S7T, K108R, V109L
heavy: not shown
notes: IgG1
In the case of B4, in test [1], the Kd was determined as 0.0209 nM, the off-rate (koff) was determined as 1.25e-05 s⁻¹ and the on-rate (kon) is 600000 M⁻¹ s⁻¹. Further, in test [2], the dissociation constant (Kd) was 1.91 nM, the koff was 0.000932 s⁻¹ and the on-rate constant (kon) was found to be 488000 M⁻¹ s⁻¹.
